Measured values as given in the supplement of paper PMC10065799, “High-throughput profiling of sequence recognition by tyrosine kinases and SH2 domains using bacterial peptide display” (eLife, 2023).

Test system: AncSZ
Experiment: phosphorylation enrichment, bacterial display (enrichment ratio); higher = better substrate or ligand; peptides without Tyr show the background
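Note: 11-residue human phosphosite peptides and single-mutation variants displayed on the E. coli surface, counted by deep sequencing, each peptide's frequency after selection divided by its frequency in the unselected input library; frequency after pTyr selection over input frequency; kinase dosed for 20-30% of maximal phosphorylation in three min.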

Sequence	phosphorylation enrichment
AEMTGYVVTRW [MAPK13_Y182]	1.17
EQKKFYNATKK [SCN5A_Y1495_M1498T_YF]	0.668
RLRKFHLGKFL [KLB_Y906_Y906H_YF]	1.06
STEAIYRRFSK [SH3PXD2B_Y42_YF]	0.431
CEETFYTMKVN [MASP2_Y401]	1.48
NTGYYYDLYGG [PTPN11_Y63_D61Y]	1.73
RLSELYLRRNR [CFAP410_Y68]	1.3
KLQKFYRKNPD [EHHADH_Y683_Q685K_YF]	0.447
KLLLKYSFHDA [RNF213_Y4141_V4146A]	1.05
YQKDVYDIPPS [NEDD9_Y177]	0.954
ERNARYRTPKI [PTK2B_Y699]	0.562
DSASAYADEVK [ETNPPL_Y189]	1.28
VNNLVYENING [FRS2_Y306_K303N]	1.17
PVFQVYPLLNC [GATA1_Y78]	1.7
LFHENYNAGTY [CFI_Y421_I416L]	1.06
CQAHGYFCQLI [STK11_Y156]	0.873
FSPGSNERETF [NF1_Y2192_Y2192N]	0.835

Sequence	phosphorylation enrichment
EHTTLYSNNST [KANSL1_Y223]	0.632
SVVVPYAPPEV [TP53_Y220_E221A]	0.756
GFPVHYTDMSN [DNMT3B_Y815_V818M]	0.947
PIGRKYKKVRF [F8_Y442_R437P]	0.828
VRHRRYKHTHE [CTCF_Y343]	0.759
FVTCTYSPALN [TP53_Y126_S121F]	1.29
RYMELYDLNRD [BBS2_Y648]	1.41
FPDFVYKCIKA [DPYSL2_Y479_R481C]	1.35
SWDKRYCEAGF [ITGA2B_Y197]	0.892
NELTFYCCKKD [CD59_Y87_YF]	1.39
KNKNRYKNVLP [PTPN11_Y279_I282V]	0.551
FVSAAYVKKLD [SPTAN1_Y1020_P1017S]	0.663
PLDGEYLTLQI [TP53_Y327_F328L]	2.75
FVSIVYNDFGE [TSC2_Y1650_S1653F]	1.21
KEAALYPHLLP [SQSTM1_Y383_P387L]	0.648
GREEFYVHFVG [KAT8_Y90_YF]	1.23

Biological target: Fes (UniProt P07332)
Experiment: as above

Chain of Fes (P07332 whole entry, looked up): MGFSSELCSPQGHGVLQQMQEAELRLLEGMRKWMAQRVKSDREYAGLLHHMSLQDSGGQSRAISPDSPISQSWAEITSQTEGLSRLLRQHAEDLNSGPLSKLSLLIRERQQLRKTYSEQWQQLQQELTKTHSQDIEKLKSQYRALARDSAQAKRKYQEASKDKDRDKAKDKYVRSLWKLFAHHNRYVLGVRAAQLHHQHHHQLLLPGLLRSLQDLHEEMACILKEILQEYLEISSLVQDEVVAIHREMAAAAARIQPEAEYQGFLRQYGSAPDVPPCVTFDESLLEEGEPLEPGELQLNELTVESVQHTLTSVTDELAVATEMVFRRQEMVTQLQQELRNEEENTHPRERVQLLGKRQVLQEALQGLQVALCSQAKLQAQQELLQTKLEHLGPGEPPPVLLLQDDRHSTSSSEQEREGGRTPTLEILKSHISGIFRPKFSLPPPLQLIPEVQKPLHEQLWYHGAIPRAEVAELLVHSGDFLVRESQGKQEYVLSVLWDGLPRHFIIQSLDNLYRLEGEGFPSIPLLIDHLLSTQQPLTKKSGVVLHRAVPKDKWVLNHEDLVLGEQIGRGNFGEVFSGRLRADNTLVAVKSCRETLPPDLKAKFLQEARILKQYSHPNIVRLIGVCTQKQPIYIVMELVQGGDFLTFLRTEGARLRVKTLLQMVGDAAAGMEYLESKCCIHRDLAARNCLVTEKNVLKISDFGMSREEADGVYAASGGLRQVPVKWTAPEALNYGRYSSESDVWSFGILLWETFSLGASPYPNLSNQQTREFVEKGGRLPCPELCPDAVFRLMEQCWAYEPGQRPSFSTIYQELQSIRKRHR

Sequence	phosphorylation enrichment
AEMTGYVVTRW [MAPK13_Y182]	1.3
EQKKFYNATKK [SCN5A_Y1495_M1498T_YF]	0.674
RLRKFHLGKFL [KLB_Y906_Y906H_YF]	1.13
STEAIYRRFSK [SH3PXD2B_Y42_YF]	0.486
CEETFYTMKVN [MASP2_Y401]	1.4
NTGYYYDLYGG [PTPN11_Y63_D61Y]	1.25
RLSELYLRRNR [CFAP410_Y68]	1.14
KLQKFYRKNPD [EHHADH_Y683_Q685K_YF]	0.541
KLLLKYSFHDA [RNF213_Y4141_V4146A]	1.3
YQKDVYDIPPS [NEDD9_Y177]	0.735
ERNARYRTPKI [PTK2B_Y699]	0.515
DSASAYADEVK [ETNPPL_Y189]	1.04
VNNLVYENING [FRS2_Y306_K303N]	2.21
PVFQVYPLLNC [GATA1_Y78]	1.87
LFHENYNAGTY [CFI_Y421_I416L]	1.1
CQAHGYFCQLI [STK11_Y156]	0.836
FSPGSNERETF [NF1_Y2192_Y2192N]	0.856

Sequence	phosphorylation enrichment
EHTTLYSNNST [KANSL1_Y223]	0.65
SVVVPYAPPEV [TP53_Y220_E221A]	0.814
GFPVHYTDMSN [DNMT3B_Y815_V818M]	0.699
PIGRKYKKVRF [F8_Y442_R437P]	0.54
VRHRRYKHTHE [CTCF_Y343]	0.654
FVTCTYSPALN [TP53_Y126_S121F]	1.32
RYMELYDLNRD [BBS2_Y648]	1.41
FPDFVYKCIKA [DPYSL2_Y479_R481C]	1.39
SWDKRYCEAGF [ITGA2B_Y197]	1.28
NELTFYCCKKD [CD59_Y87_YF]	1.28
KNKNRYKNVLP [PTPN11_Y279_I282V]	0.593
FVSAAYVKKLD [SPTAN1_Y1020_P1017S]	0.65
PLDGEYLTLQI [TP53_Y327_F328L]	2.31
FVSIVYNDFGE [TSC2_Y1650_S1653F]	1.16
KEAALYPHLLP [SQSTM1_Y383_P387L]	0.757
GREEFYVHFVG [KAT8_Y90_YF]	1.52

Biological target: Fyn (UniProt P06241)
Experiment: as above

Chain of Fyn (P06241 whole entry, looked up): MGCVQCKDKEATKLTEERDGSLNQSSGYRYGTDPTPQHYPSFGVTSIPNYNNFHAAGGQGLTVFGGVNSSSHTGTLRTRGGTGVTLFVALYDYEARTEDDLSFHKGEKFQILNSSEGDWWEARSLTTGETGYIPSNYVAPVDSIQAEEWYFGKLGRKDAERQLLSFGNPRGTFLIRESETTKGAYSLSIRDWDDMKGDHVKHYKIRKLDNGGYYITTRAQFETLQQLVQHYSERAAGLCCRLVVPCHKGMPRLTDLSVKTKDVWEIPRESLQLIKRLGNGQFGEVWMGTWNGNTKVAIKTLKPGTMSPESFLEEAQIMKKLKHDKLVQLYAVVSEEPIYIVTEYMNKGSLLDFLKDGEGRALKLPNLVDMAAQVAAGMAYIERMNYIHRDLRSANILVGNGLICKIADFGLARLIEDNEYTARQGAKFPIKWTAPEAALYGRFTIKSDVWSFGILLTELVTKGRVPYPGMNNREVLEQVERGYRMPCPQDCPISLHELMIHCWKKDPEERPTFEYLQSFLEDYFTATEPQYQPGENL

Sequence	phosphorylation enrichment
AEMTGYVVTRW [MAPK13_Y182]	0.468
EQKKFYNATKK [SCN5A_Y1495_M1498T_YF]	0.437
RLRKFHLGKFL [KLB_Y906_Y906H_YF]	0.574
STEAIYRRFSK [SH3PXD2B_Y42_YF]	0.506
CEETFYTMKVN [MASP2_Y401]	1.04
NTGYYYDLYGG [PTPN11_Y63_D61Y]	5.76
RLSELYLRRNR [CFAP410_Y68]	0.878
KLQKFYRKNPD [EHHADH_Y683_Q685K_YF]	0.389
KLLLKYSFHDA [RNF213_Y4141_V4146A]	0.367
YQKDVYDIPPS [NEDD9_Y177]	3.66
ERNARYRTPKI [PTK2B_Y699]	0.33
DSASAYADEVK [ETNPPL_Y189]	0.549
VNNLVYENING [FRS2_Y306_K303N]	6.01
PVFQVYPLLNC [GATA1_Y78]	0.652
LFHENYNAGTY [CFI_Y421_I416L]	0.605
CQAHGYFCQLI [STK11_Y156]	0.405
FSPGSNERETF [NF1_Y2192_Y2192N]	0.484

Sequence	phosphorylation enrichment
EHTTLYSNNST [KANSL1_Y223]	0.423
SVVVPYAPPEV [TP53_Y220_E221A]	0.422
GFPVHYTDMSN [DNMT3B_Y815_V818M]	0.536
PIGRKYKKVRF [F8_Y442_R437P]	0.763
VRHRRYKHTHE [CTCF_Y343]	0.613
FVTCTYSPALN [TP53_Y126_S121F]	0.449
RYMELYDLNRD [BBS2_Y648]	1.67
FPDFVYKCIKA [DPYSL2_Y479_R481C]	0.51
SWDKRYCEAGF [ITGA2B_Y197]	0.509
NELTFYCCKKD [CD59_Y87_YF]	0.452
KNKNRYKNVLP [PTPN11_Y279_I282V]	0.372
FVSAAYVKKLD [SPTAN1_Y1020_P1017S]	0.365
PLDGEYLTLQI [TP53_Y327_F328L]	1.08
FVSIVYNDFGE [TSC2_Y1650_S1653F]	0.599
KEAALYPHLLP [SQSTM1_Y383_P387L]	0.405
GREEFYVHFVG [KAT8_Y90_YF]	0.458

Biological target: FGFR3 (UniProt P22607)
Experiment: as above

Chain of FGFR3 (P22607 whole entry, looked up): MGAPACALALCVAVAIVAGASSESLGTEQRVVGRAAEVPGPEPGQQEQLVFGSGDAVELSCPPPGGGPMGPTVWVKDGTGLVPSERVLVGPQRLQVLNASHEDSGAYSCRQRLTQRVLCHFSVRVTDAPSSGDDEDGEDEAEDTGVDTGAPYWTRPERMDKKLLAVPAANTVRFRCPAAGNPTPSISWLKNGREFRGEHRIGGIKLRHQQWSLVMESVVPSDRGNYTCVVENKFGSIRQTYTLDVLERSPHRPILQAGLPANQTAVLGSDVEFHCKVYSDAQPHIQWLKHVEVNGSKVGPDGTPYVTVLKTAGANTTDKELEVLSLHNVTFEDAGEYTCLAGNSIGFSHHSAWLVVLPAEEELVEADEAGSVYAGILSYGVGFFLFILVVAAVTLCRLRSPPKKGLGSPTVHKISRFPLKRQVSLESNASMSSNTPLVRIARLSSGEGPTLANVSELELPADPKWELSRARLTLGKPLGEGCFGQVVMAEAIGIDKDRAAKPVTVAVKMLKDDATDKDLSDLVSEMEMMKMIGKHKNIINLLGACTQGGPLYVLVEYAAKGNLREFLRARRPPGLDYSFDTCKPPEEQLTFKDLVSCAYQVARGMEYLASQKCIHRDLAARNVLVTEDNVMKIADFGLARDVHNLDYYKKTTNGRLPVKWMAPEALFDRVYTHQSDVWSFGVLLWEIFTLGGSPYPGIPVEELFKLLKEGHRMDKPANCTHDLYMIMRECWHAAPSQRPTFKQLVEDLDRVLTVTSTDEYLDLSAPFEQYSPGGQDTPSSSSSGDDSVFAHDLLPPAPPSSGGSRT

Sequence	phosphorylation enrichment
AEMTGYVVTRW [MAPK13_Y182]	0.834
EQKKFYNATKK [SCN5A_Y1495_M1498T_YF]	0.487
RLRKFHLGKFL [KLB_Y906_Y906H_YF]	0.651
STEAIYRRFSK [SH3PXD2B_Y42_YF]	0.408
CEETFYTMKVN [MASP2_Y401]	0.935
NTGYYYDLYGG [PTPN11_Y63_D61Y]	11.3
RLSELYLRRNR [CFAP410_Y68]	0.875
KLQKFYRKNPD [EHHADH_Y683_Q685K_YF]	0.329
KLLLKYSFHDA [RNF213_Y4141_V4146A]	0.672
YQKDVYDIPPS [NEDD9_Y177]	0.499
ERNARYRTPKI [PTK2B_Y699]	0.369
DSASAYADEVK [ETNPPL_Y189]	0.685
VNNLVYENING [FRS2_Y306_K303N]	0.576
PVFQVYPLLNC [GATA1_Y78]	1.43
LFHENYNAGTY [CFI_Y421_I416L]	0.633
CQAHGYFCQLI [STK11_Y156]	0.609
FSPGSNERETF [NF1_Y2192_Y2192N]	0.583

Sequence	phosphorylation enrichment
EHTTLYSNNST [KANSL1_Y223]	0.431
SVVVPYAPPEV [TP53_Y220_E221A]	0.595
GFPVHYTDMSN [DNMT3B_Y815_V818M]	0.501
PIGRKYKKVRF [F8_Y442_R437P]	0.368
VRHRRYKHTHE [CTCF_Y343]	0.603
FVTCTYSPALN [TP53_Y126_S121F]	0.71
RYMELYDLNRD [BBS2_Y648]	1.24
FPDFVYKCIKA [DPYSL2_Y479_R481C]	0.788
SWDKRYCEAGF [ITGA2B_Y197]	0.561
NELTFYCCKKD [CD59_Y87_YF]	0.715
KNKNRYKNVLP [PTPN11_Y279_I282V]	0.716
FVSAAYVKKLD [SPTAN1_Y1020_P1017S]	0.455
PLDGEYLTLQI [TP53_Y327_F328L]	2.15
FVSIVYNDFGE [TSC2_Y1650_S1653F]	0.801
KEAALYPHLLP [SQSTM1_Y383_P387L]	0.481
GREEFYVHFVG [KAT8_Y90_YF]	0.841

Biological target: EPHB1 (UniProt P54762)
Experiment: as above

Chain of EPHB1 (P54762 whole entry, looked up): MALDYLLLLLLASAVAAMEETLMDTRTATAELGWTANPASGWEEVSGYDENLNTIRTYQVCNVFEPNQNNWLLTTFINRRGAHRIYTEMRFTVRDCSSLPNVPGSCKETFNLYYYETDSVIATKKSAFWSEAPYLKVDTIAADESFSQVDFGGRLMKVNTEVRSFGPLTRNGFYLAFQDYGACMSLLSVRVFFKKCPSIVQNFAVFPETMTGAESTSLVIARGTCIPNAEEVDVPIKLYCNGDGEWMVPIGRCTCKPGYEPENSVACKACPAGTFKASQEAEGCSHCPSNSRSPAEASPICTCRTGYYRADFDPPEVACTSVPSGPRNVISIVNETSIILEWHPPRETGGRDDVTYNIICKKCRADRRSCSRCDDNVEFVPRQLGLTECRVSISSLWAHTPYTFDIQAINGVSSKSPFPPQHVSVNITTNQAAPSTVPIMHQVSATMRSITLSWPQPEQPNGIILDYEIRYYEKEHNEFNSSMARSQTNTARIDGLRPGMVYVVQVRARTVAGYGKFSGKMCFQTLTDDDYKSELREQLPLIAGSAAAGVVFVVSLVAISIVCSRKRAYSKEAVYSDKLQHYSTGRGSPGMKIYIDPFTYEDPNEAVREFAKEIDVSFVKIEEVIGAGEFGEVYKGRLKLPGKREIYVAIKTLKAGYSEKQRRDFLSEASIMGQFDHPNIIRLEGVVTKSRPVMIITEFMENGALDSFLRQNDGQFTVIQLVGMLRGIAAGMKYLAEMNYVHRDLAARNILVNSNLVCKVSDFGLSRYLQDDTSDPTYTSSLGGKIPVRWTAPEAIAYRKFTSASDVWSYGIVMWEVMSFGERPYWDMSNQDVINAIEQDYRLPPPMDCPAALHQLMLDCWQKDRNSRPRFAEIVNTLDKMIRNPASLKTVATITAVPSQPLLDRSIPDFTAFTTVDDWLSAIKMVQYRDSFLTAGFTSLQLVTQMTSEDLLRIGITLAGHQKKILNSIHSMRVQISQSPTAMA

Sequence	phosphorylation enrichment
AEMTGYVVTRW [MAPK13_Y182]	0.636
